Experimental data taken from patent US20190367578A1 (Novo Nordisk, published 2019).
*1 amine or outer side, *2 acyl side, *3 side chain or, on linkers, in order; H or OH if unused. Where no end group is shown, it is not given here. Side-chain parts run from the residue outwards. [ ]: non-standard residue; d: D form. The star is where a group is joined. C18 diacid = O=C(O)CCCCCCCCCCCCCCCCC(=O)*; γGlu = O=C(O)[C@H](CCC(=O)[*:2])N[*:1]; Nle = CCCC[C@H](N)C(=O)O; AEEA = NCCOCCOCC(=O)O; Aib = CC(C)(N)C(=O)O

T1: human GIP receptor (human) (UniProt P48546)
T1 sequence (looked up): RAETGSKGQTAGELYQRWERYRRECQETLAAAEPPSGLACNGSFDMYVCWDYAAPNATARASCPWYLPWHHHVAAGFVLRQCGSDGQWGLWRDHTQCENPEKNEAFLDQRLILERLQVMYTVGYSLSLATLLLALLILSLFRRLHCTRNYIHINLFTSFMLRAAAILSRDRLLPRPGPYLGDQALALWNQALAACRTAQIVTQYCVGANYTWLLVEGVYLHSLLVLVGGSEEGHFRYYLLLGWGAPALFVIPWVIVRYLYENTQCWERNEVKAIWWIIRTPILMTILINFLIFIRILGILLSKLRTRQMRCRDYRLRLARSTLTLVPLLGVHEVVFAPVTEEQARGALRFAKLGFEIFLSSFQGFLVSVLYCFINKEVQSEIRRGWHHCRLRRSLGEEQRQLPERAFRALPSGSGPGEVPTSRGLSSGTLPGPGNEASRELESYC


Columns and labels:
Test in all cases: cell-based or functional assay
[1] = target: T1, human GIP receptor (human)
[2] = target: human GLP-1 receptor (human) (UniProt P43220)
Chain of human GLP-1 receptor (human) (P43220 24-463): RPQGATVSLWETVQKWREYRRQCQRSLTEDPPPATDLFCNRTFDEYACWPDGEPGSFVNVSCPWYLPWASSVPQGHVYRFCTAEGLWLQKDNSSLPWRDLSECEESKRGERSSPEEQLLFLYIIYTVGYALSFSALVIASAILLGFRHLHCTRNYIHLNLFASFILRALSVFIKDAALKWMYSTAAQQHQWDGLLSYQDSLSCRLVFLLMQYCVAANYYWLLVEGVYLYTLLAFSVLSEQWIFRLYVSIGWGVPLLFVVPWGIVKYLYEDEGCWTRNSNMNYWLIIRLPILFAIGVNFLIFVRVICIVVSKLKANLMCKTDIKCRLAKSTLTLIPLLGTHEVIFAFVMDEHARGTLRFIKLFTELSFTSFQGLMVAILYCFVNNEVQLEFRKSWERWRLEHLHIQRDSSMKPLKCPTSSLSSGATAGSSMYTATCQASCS

[3] = target: human glucagon receptor (human) (UniProt P47871)
Chain of human glucagon receptor (human) (P47871 26-477): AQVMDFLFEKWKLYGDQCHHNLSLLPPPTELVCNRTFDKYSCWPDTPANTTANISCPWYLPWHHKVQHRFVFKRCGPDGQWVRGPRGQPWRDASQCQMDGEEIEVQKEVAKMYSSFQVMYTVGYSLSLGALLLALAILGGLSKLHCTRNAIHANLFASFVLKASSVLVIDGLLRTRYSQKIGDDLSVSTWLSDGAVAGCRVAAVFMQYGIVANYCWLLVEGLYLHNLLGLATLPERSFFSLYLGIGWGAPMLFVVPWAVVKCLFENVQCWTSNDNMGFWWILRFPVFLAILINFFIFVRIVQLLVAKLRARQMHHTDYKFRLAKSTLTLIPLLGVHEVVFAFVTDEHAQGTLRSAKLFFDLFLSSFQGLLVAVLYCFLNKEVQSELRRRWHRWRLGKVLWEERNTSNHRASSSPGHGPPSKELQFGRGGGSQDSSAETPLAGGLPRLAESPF

human glucagon receptor = human glucagon receptor (human, UniProt P47871 26-477)
Chain of human glucagon receptor (P47871 26-477): as above

EC50 (pM), hGIP-R CRE Luc, 0.2% HSA [1]	EC50 (pM), hGLP-1-R CRE Luc, 0.2% HSA [2]	EC50 (pM), hGcg-R CRE Luc, 0.2% HSA [3]	EC50 (pM), hGLP-1-R CRE Luc, 1% HSA (footnote *) [2]	EC50 (pM), hGcg-R CRE Luc, 1% HSA (footnote *) [3]	EC50 (pM), hGcg-R CRE Luc, 0.2% HSA (human glucagon receptor)	Binder
4.12 pM	> 100000 pM	> 100000 pM				Y[Aib]EGTFISDYSIA[Nle]DKIRQQDFVK([AEEA-AEEA-γGlu-C18 diacid])WLLAQKGKEEDWKHNITQ
56 pM			> 100000 pM	> 100000 pM		Y[Aib]EGTFISDYSIALDKIHQQDFVK([AEEA-AEEA-γGlu-C18 diacid])WLLAQKGKKNDWKHNITQ
20.1 pM			> 100000 pM	> 100000 pM		Y[Aib]EGTFISDYSIA[Nle]DKIRQQDFVK([γGlu-γGlu-γGlu-C18 diacid])WLLAQKGKENDWKHNITQ
5.9 pM	> 100000 pM	> 100000 pM				Y[Aib]EGTFISDYSIA[Nle]DKIHQQDFVK([γGlu-γGlu-γGlu-C18 diacid])WLLAQKGKEDDWKHNITQ
4.47 pM	> 100000 pM	> 100000 pM				Y[Aib]EGTFISDYSIA[Nle]DKIRQQDFVK([γGlu-γGlu-γGlu-C18 diacid])WLLAQKGKEEDWKHNITQ
5.97 pM	> 100000 pM	> 100000 pM				Y[Aib]EGTFISDYSIA[Nle]DKIHQQDFVK([AEEA-AEEA-γGlu-C18 diacid])WLLAQKGKEDDWKHNITQ
5.45 pM	> 100000 pM	> 100000 pM				Y[Aib]EGTFISDYSIA[Nle]DKIHQQDFVK([AEEA-AEEA-γGlu-C18 diacid])WLLAQKGKEEDWKHNITQ
9 pM	> 100000 pM	> 100000 pM				Y[Aib]EGTFISDYSIA[Nle]DKIHQQDFVK([γGlu-γGlu-γGlu-C18 diacid])WLLAQKGKEEDWKHNITQ
					> 100000 pM	H-YAEGTFISDYSIAMDKIHQQDFVNWLLAQKGKKNDWKHNITQ-OH [hGIP(1-42)]
